Data: patent US20250340623A1 (AC IMMUNE, published 2025)
Where no end group is shown, it is not given here. The star is where a group is joined. Biotin = O=C1N[C@H]2[C@H](CS[C@H]2CCCCC(=O)*)N1; Ahx = NCCCCCC(=O)O

T1: 82-96aa
T1 construct: also called alpha-synuclein peptide 82-96
T1 peptide: {Biotin-Ahx}-VEGAGSIAAATGFVK

T2: 91-105aa
T2 peptide: {Biotin-Ahx}-ATGFVKKDQLGKNEE

T3: 118-132aa
T3 peptide: {Biotin-Ahx}-VDPDNEAYEMPSEEG

T4: 127-140aa
T4 peptide: {Biotin-Ahx}-MPSEEGYQDYEPEA

T5: 10-24aa
T5 construct: also called alpha-synuclein peptide 10-24
T5 peptide: {Biotin-Ahx}-KAKEGVVAAAEKTKQ

T6: 46-60aa
T6 construct: also called alpha-synuclein peptide 46-60
T6 peptide: {Biotin-Ahx}-EGVVHGVATVAEKTK

T7: 1-14aa
T7 construct: also called alpha-synuclein peptide 1-14
T7 peptide: MDVFMKGLSKAKEG-biotin

T8: 1-15aa
T8 construct: also called alpha-synuclein peptide 1-15
T8 peptide: {Biotin-Ahx}-MDVFMKGLSKAKEGV

T9: 64-78aa
T9 construct: also called alpha-synuclein peptide 64-78
T9 peptide: {Biotin-Ahx}-TNVGGAVVTGVTAVA


Assays:
82-96aa = target: T1, 82-96aa; experiment: indirect ELISA on biotinylated 15-mer peptide
91-105aa = target: T2, 91-105aa; experiment: indirect ELISA on biotinylated 15-mer peptide
118-132aa = target: T3, 118-132aa; experiment: indirect ELISA on biotinylated 15-mer peptide
127-140aa = target: T4, 127-140aa; experiment: indirect ELISA on biotinylated 15-mer peptide
10-24aa [1] = target: T5, 10-24aa; experiment: indirect ELISA on biotinylated 15-mer peptide
46-60aa = target: T6, 46-60aa; experiment: indirect ELISA on biotinylated 15-mer peptide
1-14aa [2] = target: T7, 1-14aa; experiment: indirect ELISA on biotinylated peptide, supernatant 1/100
Method: Serum-free supernatants were harvested from stable hybridomas. The supernatants containing antibodies of interest were then screened by an indirect ELISA assay to determine epitopes. Epitopes were first determined using a library of 15-mer peptides covering the entire sequence of human alpha-synuclein protein, spanning amino acids (aa) 1-140 with 9aa offset and […] overlap. […] Briefly, streptavidin-coated ELISA plates were blocked overnight at 4° C. […] Plates were washed with PBS/0.05% Tween®20 and then incubated with the hybridoma supernatants at 1/100 dilution for 1 hour at 25° C.

1-15aa [3] = target: T8, 1-15aa; experiment: indirect ELISA on biotinylated 15-mer peptide, supernatant 1/100
[4] = target: T10, monomeric alpha-synuclein (UniProt P37840 1-140); experiment: SPR, captured mAb
Method: (§1) Non-covalent immobilization of alpha-synuclein antibodies was performed using a target immobilization method of 2000 response units (RU). Antibodies were diluted in 10 mM sodium acetate pH 5.5 (GE Healthcare, BR-1003-52) to a final concentration of 5 μg/mL.
(§2) Binding affinity of alpha-synuclein antibodies to monomeric or fibrillar alpha-synuclein species was performed using a single-cycle kinetics method. The instrument was primed with 1×HBS-P+ buffer (10× stock from GE Healthcare, BR-1003-52 diluted in Milli-Q water). Injections of monomeric alpha-synuclein (aSyn) (Boston Biochem, SP-485), increasing in concentration from 0.62-50 nM prepared from serial 2-fold dilutions, were performed with contact times of 300 sec/injection at a flow rate of 30 μL/min. A dissociation phase of 900 sec followed the final 50 nM injection. Regeneration of the sensor to the goat anti-mouse antibody layer was achieved using 3 regenerations of 10 mM Glycine pH 1.7. […] Regeneration of the sensor to the goat anti-mouse antibody layer was achieved using 3 regenerations of 10 mM Glycine pH 1.7. Results obtained from single-cycle kinetics were evaluated by Biacore T200 evaluation software with 1:1 binding homogenous Langmuir model (with a global Rmax) with Cycle 5 as a blank subtraction. The following kinetic parameters were obtained: on-rate (ka), off-rate (kd), affinity constant (KD, ratio of kd by ka), maximum response (Rmax), and goodness of fit (Chi2).
(§3) Non-covalent capture of the alpha-synuclein antibodies was performed in three separate runs.

alpha-synuclein fibrils [5] = target: T11, alpha-synuclein fibrils (UniProt P37840 1-140); experiment: SPR, captured mAb
Method: as §1, §2, §3

64-78aa = target: T9, 64-78aa; experiment: indirect ELISA on biotinylated 15-mer peptide
[6] = target: human full-length alpha-synuclein (human, UniProt P37840 1-140); experiment: indirect ELISA on coated full-length alpha-synuclein, O.D. 405 nm
Method: Antibody binding to human full-length alpha-synuclein was determined using an indirect ELISA. Full-length alpha-synuclein was diluted in carbonate/bicarbonate buffer pH 9.6 (Sigma, C3041) to a final concentration of 2.5pg/ml and coated onto ELISA plates overnight at 4° C. After washing with PBS/0.05% Polyethylene glycol sorbitan monolaurate (Tween®20) and blocking for 1 hour at 37° C. (PBS/0.05% Tween®20/1% BSA), plates were incubated for 2 hours at 37° C. with three-fold dilution series of alpha-synuclein antibodies from 1 μg/mL to 0.0005 μg/mL using PBS/0.05% Tween®20/1% BSA as diluent.

28-42aa = experiment: indirect ELISA on biotinylated 15-mer peptide, supernatant 1/100
alpha-synuclein fibrils [7] = target: T11, alpha-synuclein fibrils; experiment: SPR, captured mAb; alpha-synuclein fibrils
Method: Any non-covalently bound antibodies were removed by three successive regenerations of 10 mM Glycine pH 1.7 (GE Healthcare, 28-9950-84). Immobilization levels were evaluated following ethanolamine capping (Bound) and finally following regeneration (Final). Non-covalent immobilization of alpha-synuclein antibodies was performed using a target immobilization method of 2000 response units (RU). Antibodies were diluted in 10 mM sodium acetate pH 5.5 (GE Healthcare, BR-1003-52) to a final concentration of 5 μg/mL.
Binding affinity of alpha-synuclein antibodies to monomeric or fibrillar alpha-synuclein species was performed using a single-cycle kinetics method. The instrument was primed with 1×HBS-P+ buffer (10× stock from GE Healthcare, BR-1003-52 diluted in Milli-Q water). Injections of monomeric alpha-synuclein (aSyn) (Boston Biochem, SP-485), increasing in concentration from 0.62-50 nM prepared from serial 2-fold dilutions, were performed with contact times of 300 sec/injection at a flow rate of 30 μL/min. A dissociation phase of 900 sec followed the final 50 nM injection. Regeneration of the sensor to the goat anti-mouse antibody layer was achieved using 3 regenerations of 10 mM Glycine pH 1.7. […] Results obtained from single-cycle kinetics were evaluated by Biacore T200 evaluation software with 1:1 binding homogenous Langmuir model (with a global Rmax) with Cycle 5 as a blank subtraction. […]

[8] = target: T10, monomeric alpha-synuclein; experiment: SPR, captured mAb; alpha-synuclein monomers
Method: as §1
Binding affinity of alpha-synuclein antibodies to monomeric or fibrillar alpha-synuclein species was performed using a single-cycle kinetics method. The instrument was primed with 1×HBS-P+ buffer (10× stock from GE Healthcare, BR-1003-52 diluted in Milli-Q water). Injections of monomeric alpha-synuclein (aSyn) (Boston Biochem, SP-485), increasing in concentration from 0.62-50 nM prepared from serial 2-fold dilutions, were performed with contact times of 300 sec/injection at a flow rate of 30 μL/min. A dissociation phase of 900 sec followed the final 50 nM injection. Regeneration of the sensor to the goat anti-mouse antibody layer was achieved using 3 regenerations of 10 mM Glycine pH 1.7. […] Regeneration of the sensor to the goat anti-mouse antibody layer was achieved using 3 regenerations of 10 mM Glycine pH 1.7. Results obtained from single-cycle kinetics were evaluated by Biacore T200 evaluation software with 1:1 binding homogenous Langmuir model (with a global Rmax) with Cycle 5 as a blank subtraction. […]

alpha-synuclein seeds = alpha-synuclein seeds (UniProt P37840 1-140); experiment: cell-based or functional assay
1-14aa [9] = target: T7, 1-14aa; experiment: indirect ELISA on biotinylated 15-mer peptide
1-15aa [10] = target: T8, 1-15aa; experiment: indirect ELISA on biotinylated 15-mer peptide
10-24aa [11] = target: T5, 10-24aa; experiment: indirect ELISA on biotinylated 15-mer peptide, supernatant 1/100

Binder	binding result (82-96aa)	binding result (91-105aa)	binding result (118-132aa)	binding result (127-140aa)	binding result (46-60aa)	koff [4] [s⁻¹]	kon [4] [M⁻¹ s⁻¹]	koff (alpha-synuclein fibrils [5]) [s⁻¹]	kon (alpha-synuclein fibrils [5]) [M⁻¹ s⁻¹]	Kd (alpha-synuclein fibrils [7]) [nM]	Kd [8] [nM]	other results
ACI-7079-2603C1-Ab3 (antibody, V domains shown, mouse hybridoma mAb; VH/VL only; also called 2603C1H6) VH: QVQLQQPGADLVKPGASVKLSCKASGYTFTSYWMQWTKQRPGQGLEWIGEIDPSDSYANYNQKFKGKATLTVDKYSSTAYMQLNSLTSEDSAVYYCALYDGPSYWGQGTLVTVS VL: ENVLTQSPAIMSASPGEKVTMTCSAGSSVSYMHWFQQKSSTSPKLWIYDTSKLPSGVPGRFSGSGSGNSYSLTISSMEAEDVATYYCFQGSGYPYTFGGGTKLEIK	no binding (tested: supernatant 1/100)	no binding (tested: supernatant 1/100)	no binding (tested: supernatant 1/100)	no binding (tested: supernatant 1/100)	no binding (tested: supernatant 1/100)	–	–	–	–	–	–	binding result (10-24aa [1]): no binding (tested: supernatant 1/100); binding result (1-14aa [2]): binds; binding result (1-15aa [3]): binds
ACI-7067-1206E5-Ab1 (antibody, V domains shown, mouse hybridoma mAb; VH/VL only; also called 1206E5D2) VH: QVQLQQSGPELVKPGASVKMSCKASGYTFTDYVISWVKQGTGQGLEWIGEIYPGNDSTYYNEKFKGKATLTADKSSNTAYMQLSSLTSEDSAVYFCAREGVSNGYLYLSMDYWGQGTSVTVSS VL: not shown	no binding (tested: supernatant 1/100)	–	no binding (tested: supernatant 1/100)	no binding (tested: supernatant 1/100)	no binding (tested: supernatant 1/100)	6.36e-05	165000	0.000405	57300	–	–	Kd [4]: 0.4 nM; Kd (alpha-synuclein fibrils [5]): 8.3 nM; binding result (64-78aa): no binding (tested: supernatant 1/100); EC50 (read off the curve) [6]: ~0.04 µg/mL; binding result (28-42aa): binds
ACI-7067-4813-R4A-G7-rec1 (antibody, mouse IgG2a, V domains shown, from phage display of immunised mice; positive clones expressed recombinantly as murine IgG2a; VH/VL only; also called ACI-7067-R4A-G7-Ab-1) VH: EVQLEESGGGLVHPKGSLKLSCAASGFTFNSYAMHWVRQAPGKGLEWVARIRSKRSNYATYYADSVKDRFTISRDDSQSMVYLEMNNLEAEDTATYYCVRGGREAMDFWGQGTSVTVSS VL: QAVVTQESALTTSPGETVTLTCRSSTGAVTTSNYANWVQEKPDHLFTGLIGGTNNRAPGVPARFSGSLIGDKAALTITGAQTEDEAIYFCALWYSNHWVFGGGTKLTVL	–	–	–	–	–	0.0737	735000	1.34e-07	4760	0.041	97	–
ACI-7079-2506F3-Ab1 (antibody, V domains shown, mouse hybridoma mAb; VH/VL only; also called 2506F3E12) VH: QVQLQQPGAELVKPGASVKLSCKASGYTFTTYWMQWVKQRPGQGLEWIGEIDPSDSYINYNQKFKGKATLTVDTSSSTAFMQLSSLTSEDSAVYYCARGMMDYWGQGTSVTVSS VL: DVLMTQTPLSLPVSLGDQASISCRSSQSIVHSNGNTYLEWYLQKPGQSPKLLIYKVSNRFSGVPDRFSGSGSGTDFTLKISRVEAEDLGVYYCFKGSHVPYTFGGGTKLEIK	no binding (tested: supernatant 1/100)	no binding (tested: supernatant 1/100)	no binding (tested: supernatant 1/100)	no binding (tested: supernatant 1/100)	no binding (tested: supernatant 1/100)	–	–	–	–	–	–	aggregation half-time (τ1/2) of seeded alpha-synuclein aggregation, ThT; no antibody 26.9 hours (alpha-synuclein seeds): 34.2 h; binding result (1-14aa [9]): no binding (tested: supernatant 1/100); binding result (1-15aa [10]): no binding (tested: supernatant 1/100); binding result (10-24aa [11]): binds
ACI-8032-6313G2-Ab1 (antibody, V domains shown, mouse hybridoma mAb; VH/VL only; also called 6313G2A10) VH: EVQLQQSGPELVKPGASVKISCKASGYTFTDYYMNWVKQSHGKSLEWIGDIDPNNGVTSYSQKFKGKATLTVDKSSSTAYMELRSLTSEDSAVYYCARTGYYGTSLYYAMDYWGQGTSVTVSS VL: DIVMSQSPSSLAVSAGEKVTMNCKSSQSLLNSRTRKNYLAWYQQKPGQSPKLLIYWASTRESGVPDRFIGSGSGTGFTLTISSVQAEDLAVYYCKQSYDLWTFGGGTKLEIK	–	–	–	–	–	0.000541	33500	0.000829	338	2460	16.2	–
